The supplement of paper PMC9112550, “Optimization of the antimicrobial peptide Bac7 by deep mutational scanning” (BMC Biology, 2022)

Tested on: Escherichia coli TOP10
Assay: shrunken log2 fold change of peptide-encoding DNA abundance (4.5 h post-induction vs induction); higher = less antimicrobial activity (less host growth inhibition)
Conditions: time post-induction: 4.5 h; library: site-saturation at positions 5, 18, 19, 20
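Further: peptides expressed intracellularly from a pBAD plasmid library in pooled LB shake-flask culture, induced with 0.3% L-arabinose, DNA abundance read by NGS, three biological replicates, DESeq2 with apeglm shrinkage.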

Sequence	shrunken log2 fold change
RRIRQRPPRLPRPRPRPPAIPRP	-0.0632
RRIRARPPRLPRPRPRPYPLPRP	-0.127
RRIRRRPPRLPRPRPRPLARPRP	0.153
RRIRGRPPRLPRPRPRPLWAPRP	0.681
RRIRDRPPRLPRPRPRPINTPRP	-0.115
RRIRGRPPRLPRPRPRPHRRPRP	0.205
RRIRPRPPRLPRPRPRPWDFPRP	0.122
RRIRIRPPRLPRPRPRPCECPRP	0.0112
RRIRHRPPRLPRPRPRPMDNPRP	-0.262
RRIRDRPPRLPRPRPRPCACPRP	0.112
RRIRCRPPRLPRPRPRPKGEPRP	0.0643
RRIRDRPPRLPRPRPRPKRQPRP	-0.0603
RRIRFRPPRLPRPRPRPMEVPRP	-0.00205
RRIRLRPPRLPRPRPRPSTYPRP	-0.205
RRIRCRPPRLPRPRPRPMSCPRP	-0.0327
RRIRWRPPRLPRPRPRPETDPRP	0.773
RRIRHRPPRLPRPRPRPHRVPRP	0.0179
RRIRMRPPRLPRPRPRPSMVPRP	0.0557
RRIRRRPPRLPRPRPRPKERPRP	-0.327
RRIRPRPPRLPRPRPRPKDTPRP	-0.173
RRIRYRPPRLPRPRPRPNCCPRP	-0.518
RRIRLRPPRLPRPRPRPEQSPRP	-0.0314
RRIRYRPPRLPRPRPRPAFDPRP	0.105
RRIRGRPPRLPRPRPRPKPTPRP	0.527
RRIRMRPPRLPRPRPRPHCLPRP	-0.0601

Sequence	shrunken log2 fold change
RRIRYRPPRLPRPRPRPQASPRP	-0.0259
RRIRKRPPRLPRPRPRPALIPRP	0.2
RRIRKRPPRLPRPRPRPGHAPRP	0.667
RRIRNRPPRLPRPRPRPLQDPRP	-0.247
RRIRRRPPRLPRPRPRPDRMPRP	-0.00208
RRIRRRPPRLPRPRPRPEMRPRP	0.0735
RRIRRRPPRLPRPRPRPSDLPRP	0.0119
RRIRDRPPRLPRPRPRPFPFPRP	-0.163
RRIRYRPPRLPRPRPRPYVFPRP	-0.0427
RRIRVRPPRLPRPRPRPHVNPRP	-0.554
RRIRVRPPRLPRPRPRPNMSPRP	-0.537
RRIRIRPPRLPRPRPRPKASPRP	-0.0616
RRIRSRPPRLPRPRPRPSIKPRP	-0.613
RRIRGRPPRLPRPRPRPHTYPRP	-0.0875
RRIRTRPPRLPRPRPRPPYIPRP	-0.694
RRIRHRPPRLPRPRPRPPTYPRP	-0.0835
RRIRSRPPRLPRPRPRPFRMPRP	-0.646
RRIRQRPPRLPRPRPRPEMRPRP	1.13
RRIRVRPPRLPRPRPRPHKWPRP	-0.0581
RRIRSRPPRLPRPRPRPGACPRP	0.0577
RRIRTRPPRLPRPRPRPKQWPRP	0.158
RRIRVRPPRLPRPRPRPSLNPRP	-0.416
RRIRVRPPRLPRPRPRPEIVPRP	-0.0567
RRIRRRPPRLPRPRPRPKFAPRP	0.283
RRIRCRPPRLPRPRPRPMRGPRP	1.05

Sequence	shrunken log2 fold change
RRIRLRPPRLPRPRPRPVDSPRP	0.0702
RRIRKRPPRLPRPRPRPHNAPRP	0.0979
RRIRFRPPRLPRPRPRPFRVPRP	-0.119
RRIRYRPPRLPRPRPRPGMLPRP	-0.139
RRIRDRPPRLPRPRPRPLFKPRP	-0.221
RRIRWRPPRLPRPRPRPSPQPRP	0.266
RRIRNRPPRLPRPRPRPIFDPRP	-0.201
RRIRLRPPRLPRPRPRPNDFPRP	-0.0142
RRIRIRPPRLPRPRPRPCCPPRP	-0.168
RRIRWRPPRLPRPRPRPEMTPRP	-0.0833
RRIRCRPPRLPRPRPRPAAFPRP	0.292
RRIRSRPPRLPRPRPRPVKLPRP	-0.104
RRIRSRPPRLPRPRPRPTMTPRP	0.391
RRIRVRPPRLPRPRPRPQLCPRP	-0.143
RRIRWRPPRLPRPRPRPNMDPRP	0.0467
RRIRFRPPRLPRPRPRPREPPRP	0.208
RRIRMRPPRLPRPRPRPLLAPRP	2.1
RRIRWRPPRLPRPRPRPKANPRP	0.51
RRIRGRPPRLPRPRPRPKTHPRP	0.947
RRIRNRPPRLPRPRPRPKKHPRP	-0.315
RRIRVRPPRLPRPRPRPWPKPRP	0.0246
RRIRMRPPRLPRPRPRPQHHPRP	-0.0825
RRIRWRPPRLPRPRPRPTCGPRP	0.73
RRIRCRPPRLPRPRPRPKVPPRP	-0.0562
RRIRARPPRLPRPRPRPTVIPRP	0.0535
